The values that follow come from patent publication US20090186842, “Methods and compositions for inhibition of viral replication” (published 2009).

As usually defined, the Kd is a measure of binding affinity in units of concentration.

Changes are numbered by the printed parent chain.

In one data set the target is T1, TIARa (rTIAR) (Mus musculus, UniProt P70318 P70318:1-392).
T1 sequence: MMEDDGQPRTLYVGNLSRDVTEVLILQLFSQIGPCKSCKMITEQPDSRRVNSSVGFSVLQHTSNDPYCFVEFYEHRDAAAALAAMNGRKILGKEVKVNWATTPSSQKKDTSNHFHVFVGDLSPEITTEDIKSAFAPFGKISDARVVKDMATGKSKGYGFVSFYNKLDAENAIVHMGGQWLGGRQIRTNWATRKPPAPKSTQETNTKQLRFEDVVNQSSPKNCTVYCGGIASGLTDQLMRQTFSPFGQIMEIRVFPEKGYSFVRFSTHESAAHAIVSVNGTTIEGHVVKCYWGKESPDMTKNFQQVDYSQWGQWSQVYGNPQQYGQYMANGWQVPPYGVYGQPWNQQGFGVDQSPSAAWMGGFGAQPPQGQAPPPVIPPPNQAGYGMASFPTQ
Nature of the data set: EMSA; 5-90 nM protein, 0.2 nM RNA, 1 mM MgCl2, 30 mM KCl, RT. To be noted: tags: C-terminal His6; label: 32P; stem-loop; AU-rich loops L1, L2, L3. A general note: In EMSA bound probe runs differently from free probe, usually more slowly.

In another data set the target is T2, GST-TIAR RRM1 (UniProt Q01085 Q01085:9-85).
T2 sequence: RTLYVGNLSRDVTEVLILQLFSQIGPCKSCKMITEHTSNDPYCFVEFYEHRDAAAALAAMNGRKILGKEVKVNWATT
The experiment in a line: EMSA; 200 nM protein. To be noted: tags: GST fusion; label: 32P; stem-loop.

The target in a further data set is T3, GST-TIAR RRM3 (UniProt Q01085 Q01085:205-277).
T3 sequence: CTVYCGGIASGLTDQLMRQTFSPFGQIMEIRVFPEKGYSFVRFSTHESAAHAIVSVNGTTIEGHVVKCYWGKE
Nature of the data set: EMSA; 200 nM protein. To be noted: tags: GST fusion; label: 32P; stem-loop.

In the next data set the target is T4, GST-TIA-1 RRM1 (UniProt P31483 P31483:7-83).
T4 sequence: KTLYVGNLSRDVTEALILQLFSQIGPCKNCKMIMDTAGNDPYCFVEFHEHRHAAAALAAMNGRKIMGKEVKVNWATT
Nature of the data set: EMSA; 500 nM protein. As to conditions: tags: GST fusion; label: 32P; stem-loop.

For a further data set, the target named is T5, GST-TIA-1 RRM3 (UniProt P31483 P31483:214-286).
T5 sequence: T3 sequence with I8V, A9T, D14E, E35D, S44N, T45S
The experiment in a line: EMSA; 500 nM protein. To be noted: tags: GST fusion; label: 32P; stem-loop.

For a further data set, the target named is T6, GST-TIAR RRM2 (UniProt Q01085 Q01085:97-175).
T6 sequence: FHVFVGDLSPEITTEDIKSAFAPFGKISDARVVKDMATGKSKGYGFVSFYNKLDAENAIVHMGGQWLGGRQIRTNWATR
The experiment in a line: EMSA; SD 5 nM, n=1.2. As to conditions: tags: GST fusion; label: 32P; stem-loop.

The target in another data set is T7, GST-TIA-1 RRM2 (UniProt P31483 P31483:106-184).
T7 sequence: T6 sequence with S19A, K26R, Y50F, L53W, V60Q, H61Q
Nature of the data set: EMSA; SD 15 nM, n=1.1. As to conditions: tags: GST fusion; label: 32P; stem-loop.

B1: WNV3'(-)SL RNA (ssRNA)
RNA: CAGCUCGCACCGUGUUAAUUGUUGUUAAUCCUCACAAACACUACUAAGUUUGUCAGCUCACACAGGCGAACUACU
As for B1, in the data set with TIARa (rTIAR), the binding result is “binds”.

B2: WNV 3'(-)SL RNA with 5' CCC (ssRNA)
RNA: CCCCAGCUCGCACCGUGUUAAUUGUUGUUAAUCCUCACAAACACUACUAAGUUUGUCAGCUCACACAGGCGAACUACU
For the molecule B2, the binding result with GST-TIAR RRM1, with GST-TIAR RRM3, with GST-TIA-1 RRM1 and in the data set with GST-TIA-1 RRM3 was “no binding” throughout. In addition, the Kd is 15 nM with GST-TIAR RRM2 and 112 nM with GST-TIA-1 RRM2.
